For five molecules, Kd results are on record in PMC9517163 (2022).

The target of this assay is SARS-CoV-2 receptor-binding domain (RBD), prototype (SARS-CoV-2, UniProt P0DTC2). Description: SPR. In general terms: In SPR one partner is held on a chip, and binding of the other changes the refractive index at the surface.

B1: fur seal ACE2, mFc-tagged (Fc fusion)
chain: RSTTEDLVKTFLEKFNSEAEELSYQSSFASWNYNTNITDENVQKMNDAGAKWSAFYEEQSKQAKTYPLEEIQDSTVKRQLQALQHSGSSVLSVDKSQRLNTILNAMSTIYSTGKACNPNNPQECLLLEPGLDDIMANSRDYNERLWAWEGWRSEVGKQLRPLYEEYVALKNEMARANNYEDYGDYWRGDYEEEWTNGYNYSRDQLIKDVEQTFTQIQPLYEHLHAYVRAKLMDTYPSHISPTGCLPAHLLGDMWGRFWTNLYPLTVPFGQKPNIDVTDTMVNQSWDARRIFEEAEKFFVSVGLPNMTQGFWENSMLTEPGDSRKVVCHPTAWDLGKHDFRIKMCTKVTMDDFLTAHHEMGHIQYDMAYAAQPFLLRNGANEGFHEAVGEIMSLSAATPKHLKNIGLLPPGFSEDNETDINFLFKQALTIVGTLPFTYMLEKWRWMVFKGEIPKEQWMKKWWEMKRDLVGVVEPLPHDETYCDPASLFHVANDYSFIRYYTRTIYQFQFQEALCQIAKHEGPLHKCDISNSSEAGQTLLQMLKLGRSKPWTLALYRVVGAKNMDVRPLLNYFDPLFTWLKEQNRNSFVGWNTDWSPYADQSIKVRISLKSALGEKAYEWNDNEMYLFRSSIAYAMREYFSKVKKQTIPFVEDNVWVNNLKPRISFTFFVTSPGNMSDIIPRADVEEAIRMSRGRINDAFRLDDNSLEFLGIQPTLEPPYQPPVT
As usually defined, the Kd is the concentration at which binding is half-saturated. Read a high Kd as lower affinity. B1 had a Kd of 129 nM.

B2: sea lion ACE2, mFc-tagged (Fc fusion)
chain: RSTTEDLVKTFLEKFNSEAEELSYQSSLASWNYNTNITDENVQKMNDAGAKWSAFYEEQSKQAKTYPLEEIQDSTVKRQLQALQHSGSSVLSADKSQRLNTILNAMSTIYSTGKACNPNNPQECLLLEPGLDDIMANSRDYNERLWAWEGWRSEVGKQLRPLYEEYVALKNEMARANNYEDYGDYWRGDYEEEWTNGYNYSRDQLIKDVEQTFTQIQPLYEHLHAYVRAKLMDTYPSHMSPTGCLPAHLLGDMWGRFWTNLYPLTVPFGQKPNIDVTDTMVNQSWDARRIFEEAEKFFVSVGLPNMTQGFWENSMLTEPGDSRKVVCHPTAWDLGKHDFRIKMCTKVTMDDFLTAHHEMGHIQYDMAYAAQPFLLRNGANEGFHEAVGEIMSLSAATPKHLKNIGLLPPGFSEDNETDINFLFKQALTIVGTLPFTYMLEKWRWMVFKGEIPKEQWMKKWWEMKRDLVGVVEPLPHDETYCDPASLFHVANDYSFIRYYTRTIYQFQFQEALCQIAKHEGPLHKCDISNSSEAGQTLLQMLKLGRSKPWTLALYRVVGAKNMDVRPLLNYFDPLFTWLKEQNRNSFVGWNTDWSPYADQSIKVRISLKSALGEKAYEWNDNEMYLFRSSIAYAMREYFSKVKNQMIPFVEDNVWVNNLKPRISFTFFVTSPGNMSDIIPRADVEEAIRMSRGRINDAFRLDDNSLEFLGIQPTLEPPYQPPVT
B2 registered a Kd of 171 nM.

B3: sperm whale ACE2, mFc-tagged (Fc fusion)
chain: QSTTEEQAKTFLQKFDHEAEDLSYQSSLASWNYNTNITDENVQKMNAARAKWSAFYEEQSRTAKTYPLEEIQNLTLKRQLQALQQSGTSVLSADKSKRLNTILNTMSTIYSSGKVLDPNTQECLVLEPGLDDIMENSEDYSRRLWAWEAWRAEVGKQLRPLYEEYVVLENEMARANNYEDYGDYWRGDYEVTGAGDYDYSRDQLITDVERTFAEIKPLYEQLHAYVRAKLMDAYPSRISPTGCLPAHLLGDMWGRFWTNLYPLTVPFGEKSSIDVTKEMRNQSWDAKRIFKEAEKFFVSIGLPNMTQEFWDNSMLTEPGDGRKVVCHPTAWDLGKGDFRIKMCTKVTMDDFLTARHEMGHIQYDMAYATQPYLLRNGANEGFHEAVGEIMSLSAATPHYLKALGLLPPDFYEDSATEINFLLKQALKIVGTLPFTYMLEKWRWMVFKGEIPKEQWMQKWWEMKREIVGVVEPLPHDETYCDPACLFHVAEDYSFIRYYTRTIYQFQFHEALCQAAKHEGPLYKCDISNSTEAGQRLLQMLHLGKSEPWTSALENIVGVKTMDVKPLLNYFEPLLTWLKDQNRNSFVGWSTDWTPYSDQSIKVRISLKSALGEKAYEWNDNEMYLFRSSVAYAMREYFSKVRNETIPFGEEDVRVGDLKPRISFTFFVTSPKNVSDIIPRTEVEEAIRMSRGRINDAFRLDDNSLEFLGIEPTLGPPYEPPVT
B3 yielded a Kd of 234 nM.

B4: minke whale ACE2, mFc-tagged (Fc fusion)
chain: QSTTEEQAKTFLQKFDHEAEDLSYRSSLASWNYNTNITDENVQKMNAARAKWSAFYEEQSRIAKTYPLEEIQNLTLKRQLQALQQSGTSVLSADKSKRLNTILNTMSTIYSSGKVLDPNTQEYLVLEPGLDDIMENSEDYNRRLWAWEGWRAEVGKQLRPFYEEYVVLENEMARANNYEDYGDYWRGDYEVTGADGYDYSRNQLIADVERTFAEIKPLYEQLHAYVRAKLMDAYPSRISPTGCLPAHLLGDMWGRFWTNLYPLTVPFGEKPSIDVTKEMQNQSWDAKRIFKEAEKFFVSIGLPNMTQEFWVNSMLTEPGDGRKVVCHPTAWDLGKGDFRIKMCTKVTMDDFLTAHHEMGHIQYDMAYATQPFLLRNGANEGFHEAVGEIMSLSAATPHYLKALGLLPPDFYEDNVTEINFLLKQALQIVGTLPFTYMLEKWRWMVFKGEIPKEQWMQKWWEMKREIVGVVEPLPHDETYCDPACLFHVAEDYSFIRYYTRTIYQFQFHEALCQTAKHEGPLYKCDISNSTEAGQRLLQMLHLGKSEPWTLALENIVGVKTMDVKPLLNYFEPLLTWLKEQNRNSPVGWSTDWTPYSDQSIKVRISLKSALGEKAYEWNDNEMYLFQSSVAYAMREYFSKVRNETIPFGEKDVWVSDLKPRISFNFFVTTPKNVSDIIPRTEVEEAIRMSRGRINDAFRLDDNSLEFLGIQPTLGPPYEPPVT
Turning to B4, the Kd amounted to 175 nM.

B5: dolphin ACE2, mFc-tagged (Fc fusion)
chain: QSATEERAKTFLQKFDREAEDLSYQSSLASWNYNTNITDENVQKMNAAGAKWSAFYEEQSRIAKTYPLEEIRNLTLKRQLQVLQQSGTSVLSADKSKRLNAILSTMSTIYSSGKVLDPNTQESLVLEPGLDDIMENSKDYNRRLWAWEGWRAEVGKQLRPLYEEYVVLENEMARANNYEDYGDYWRGDYEVTGAGDYDYSRDQLIRDVERTFAEIKPLYEQLHAYVRAKLMDAYPSRISPTGCLPAHLLGDMWGRFWTNLYPLTVPFGERPSIDVTKEMQNQSWDAKRIFKEAEKFFVSIGLPNMTQGFWDNSMLTEPGDGRKVVCHPTAWDLGKGDFRIKMCTKVTMDDFLTAHHEMGHIQYDMAYATQPYLFRNGANEGFHEAVGEIMSLSAATPHYLKALGLLPPDFYEDSATEINFLLKQALTIVGTLPFTYMLEKWRWMVFKGEIPKEQWMQKWWEMKREIVGVVEPLPHDETYCDPACLFHVAEDYSFIRYYTRTIYQFQFHEALCQTAKHEGPLYKCDISNSTEAGQRLLQMLHLGKSEPWTSALERIVGVKTMDVKPLLNYFEPLLTWLKGQNRNSFVGWRTDWTPYSNQSIKVRISLKSALGEKAYEWNDNEMYLFRSSVAYAMREYFSKVRNKTIPFGEKDVWVSDLKPRISFNFFVTSPKNMSDIIPRTEVEEAIRMSRGRINDAFRLDDSSLEFLGVQPTLAPPYEPPVT
B5 had a Kd of 562 nM.
